Molecular target: the molecule itself
Assay: native gel or EMSA

Protein | binding result
Q115R Sin (enzyme, Staphylococcus aureus (plasmid pI9789)) MIIGYARVSSLDQNLERQLENLKTFGAEKIFTEKQSGKSIENRPILQKALNFVRMGDRFIVESIDRLGRNYNEVIHTVNYLKDKEVQLMITSLPMMNEVIGNPLLDKFMKDLIIRILAMVSEQERNESKRRQAQGIQVAKEKGVYKGRPLLYSPNAKDPQKRVIYHRVVEMLEEGQAISKIAKEVNITRQTVYRIKHDNGLS | binds
T77I/I100T/Q115R Sin (enzyme, Staphylococcus aureus (plasmid pI9789)) MIIGYARVSSLDQNLERQLENLKTFGAEKIFTEKQSGKSIENRPILQKALNFVRMGDRFIVESIDRLGRNYNEVIHIVNYLKDKEVQLMITSLPMMNEVTGNPLLDKFMKDLIIRILAMVSEQERNESKRRQAQGIQVAKEKGVYKGRPLLYSPNAKDPQKRVIYHRVVEMLEEGQAISKIAKEVNITRQTVYRIKHDNGLS | binds

From PMC2764113 (Molecular Microbiology, 2009)
